# T1: cynomolgus IL-17A (cynomolgus, UniProt Q16552 24-155 (human entry), limits assumed)
# T1 chain: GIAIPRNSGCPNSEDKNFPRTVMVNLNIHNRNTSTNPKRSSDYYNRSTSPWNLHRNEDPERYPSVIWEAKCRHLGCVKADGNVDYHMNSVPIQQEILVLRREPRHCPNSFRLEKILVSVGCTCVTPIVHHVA
# T2: human IL-17A (human, UniProt Q16552 24-155)
# T2 sequence: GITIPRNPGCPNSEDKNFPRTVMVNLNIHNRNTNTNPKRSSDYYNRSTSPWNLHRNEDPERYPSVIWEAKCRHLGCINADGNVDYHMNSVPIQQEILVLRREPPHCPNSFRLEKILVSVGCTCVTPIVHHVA
# T3: rhIL-17A/F heterodimer (R&D Systems) (human, UniProt Q16552 20-155; Q96PD4 31-163, limits assumed)
# T3 sequence (looked up) 1: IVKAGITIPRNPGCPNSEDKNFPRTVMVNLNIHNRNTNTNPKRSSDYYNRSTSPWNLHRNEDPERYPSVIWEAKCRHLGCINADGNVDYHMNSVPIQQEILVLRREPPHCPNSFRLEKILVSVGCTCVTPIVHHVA
# T3 sequence (looked up) 2: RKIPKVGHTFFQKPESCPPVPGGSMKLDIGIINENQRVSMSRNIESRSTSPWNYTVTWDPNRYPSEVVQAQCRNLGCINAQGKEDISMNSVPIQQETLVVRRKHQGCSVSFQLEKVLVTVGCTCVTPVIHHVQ
# Legend:
# [1] = molecular target: T1, cynomolgus IL-17A; experiment: cell-based or functional assay
# [2] = molecular target: T1, cynomolgus IL-17A; experiment: competition ELISA: mAb against biotinylated cyno IL-17A binding to coated IL-17RA-Fc
# Method: Clear maxisorp plates were coated with 100 μl/well of 2.5 μg/ml human IL-17RA-Fc (R&D Systems, Minneapolis, Minn.) in 0.1 M sodium carbonate-bicarbonate buffer, pH 9.4 and incubated overnight at 4° C. […] The signal was detected with 100 μl of 1:10,000 dilution of 1 mg/ml SA-HRP (Jackson Immunoresearch, West Grove, Pa.) for 20 minutes at room temperature (RT) followed by 100 μl/well of OPD substrate (Sigma-Aldrich Corp., St. Louis, Mo.).
# [3] = molecular target: T1, cynomolgus IL-17A; experiment: SPR Biacore 3000, antibody captured, IL-17 in solution
# Method: (§1) Affinity measurements using Surface Plasmon Resonance (SPR) were performed using a Biacore 3000 optical biosensor (Biacore).
# [4] = molecular target: T2, human IL-17A; experiment: binding ELISA, IL-17A protein coated on micro-titer plate, serial dilutions of labeled mAb1926, 37 C 2 h
# From the text: Human, mouse and rat IL-17A proteins were coated on the micro-titer plates.
# [5] = molecular target: T3, rhIL-17A/F heterodimer (R&D Systems); experiment: cell-based or functional assay
# [6] = molecular target: T1, cynomolgus IL-17A; experiment: SPR Biacore 3000, Fab captured, IL-17 in solution
# Method: as §1
Binder,"IL-6 production (NHDF), IC50 [1] [nM]","IL-8 production (NHDF), IC50 [1] [nM]",IC50 [2] [nM],Kd [3] [nM],Stoichiometry [3] [dimers per anti-IL-17],binding result [4],"IL-17A/F heterodimer-induced IL-6 production by NHDF, EC50 [5] [nM]",Kd [6] [nM]
"mAb4538 (antibody, human IgG1, lambda, V domains shown, Framework-engineered mAb; also called engineered form of MOR7706) VH: QVQLQQSGPGLVKPSQTLSLTCAISGDSVSSSSAAWGWIRQSPSRGLEWLGRISYRSKWYNDYAVSVKSRITINPDTSKNQFSLQLNSVTPEDTAVYYCAREVDSMYYSYFDIWGQGTLVTVSS VL: EIVLTQSPATLSLSPGERATLSCRASQNVWAFYLAWYQQKPGQAPRLLIYGASNRATGIPARFSGSGSGTDFTLTISSLEPEDFAVYYCQQYRSTLSLTFGQGTKVEIKG",0.847,1.75,0.636,,,,,
"mAb732 (antibody, human IgG1, lambda, V domains shown, Framework-engineered mAb; also called engineered form of MOR7775) VH: QVQLQQSGPGLVKPSQTLSLTCAISGDSVSSSSAAWGWIRQSPSRGLEWLGRISYRSKWYNDYAVSVKSRITINPDTSKNQFSLQLNSVTPEDTAVYYCAREVDSMYYSYFDIWGQGTLVTVSS VL: EIVLTQSPATLSLSPGERATLSCRASQNVWAFYLAWYQQKPGQAPRLLIYGASNRATGIPARFSGSGSGTDFTLTISSLEPEDFAVYYCTQYYSSPSLTFGQGTKVEIKG",2.02,12.5,0.463,,,,,
"mAb3584 (antibody, human IgG1, lambda, V domains shown, Framework-engineered mAb; also called engineered form of MOR8299) VH: QVQLQQSGPGLVKPSQTLSLTCAISGDSVSSSSAAWGWIRQSPSRGLEWLGRISYRSKWYNDYAVSVKSRITINPDTSKNQFSLQLNSVTPEDTAVYYCAREVDSIYYSYFDIWGQGTLVTVSS VL: EIVLTQSPATLSLSPGERATLSCRASQNVWAFYLAWYQQKPGQAPRLLIYGASNRATGIPARFSGSGSGTDFTLTISSLEPEDFAVYYCQQYRSTLSLTFGQGTKVEIKG",0.823,1.25,0.489,,,,,
"mAb4168 (antibody, human IgG1, lambda, V domains shown, Framework-engineered mAb; also called engineered form of MOR8103) VH: QVQLQQSGPGLVKPSQTLSLTCAISGDSVSSSSAAWGWIRQSPSRGLEWLGRISYRSKWYNDYAVSVKSRITINPDTSKNQFSLQLNSVTPEDTAVYYCAREVDSTYYSYFDIWGQGTLVTVSS VL: EIVLTQSPATLSLSPGERATLSCRASQNVWAFYLAWYQQKPGQAPRLLIYGASNRATGIPARFSGSGSGTDFTLTISSLEPEDFAVYYCTQYYSSPSLTFGQGTKVEIKG",2.17,3.3,0.764,,,,,
"mAb7146 (antibody, human IgG1, lambda, V domains shown, Framework-engineered mAb; also called engineered form of MOR8160) VH: QVQLLESGGGLVQPGGSLRLSCAASGFTFSSYAMSWVRQAPGKGLEWVSTISMTSGFTYYADSVKGRFTISRDNSKNTLYLQMNSLRAEDTAVYYCARQLTLDVWGQGTLVTVSS VL: QSVLTQPPSVSVAPGQTARISCSGDNLGDKYANWYQQKPGQAPVLVIYDDIDRPSGIPERFSGSNSGNTATLTISGTQAEDEADYYCGSYDFFLGLIVFGGGTKLTVLG",0.139,0.14,0.067,0.05,2,,,
"mAb1926 (antibody, human IgG1, lambda, V domains shown, Framework-engineered mAb; also called mAbtr1926; engineered form of MOR7700) VH: QVQLLESGGGLVQPGGSLRLSCAASGFTFSSYAMSWVRQAPGKGLEWVSTISMTSGFTYYADSVKGRFTISRDNSKNTLYLQMNSLRAEDTAVYYCARQLMLDVWGQGTLVTVSS VL: QSVLTQPPSVSVAPGQTARISCSGDNLGDKYANWYQQKPGQAPVLVIYDDIDRPSGIPERFSGSNSGNTATLTISGTQAEDEADYYCGSYDFFLGMIVFGGGTKLTVLG",0.067,,0.053,0.018,2.3,binds,,
"mAb5548 (antibody, human IgG1, lambda, V domains shown, Framework-engineered mAb) VH: QVQLLESGGGLVQPGGSLRLSCAASGFTFSSYAMSWVRQAPGKGLEWVSTISLTSGFTYYADSVKGRFTISRDNSKNTLYLQMNSLRAEDTAVYYCARQLTLDVWGQGTLVTVSS VL: QSVLTQPPSVSVAPGQTARISCSGDNLGDKYANWYQQKPGQAPVLVIYDDIDRPSGIPERFSGSNSGNTATLTISGTQAEDEADYYCGSYDFFLGLIVFGGGTKLTVLG",,,,0.225,1.9,,,
"mAb6785 (antibody, human IgG1, lambda, V domains shown, Framework-engineered mAb; also called engineered form of MOR8302) VH: QVQLLESGGGLVQPGGSLRLSCAASGFTFSSYAMSWVRQAPGKGLEWVSTISLTSGFTYYADSVKGRFTISRDNSKNTLYLQMNSLRAEDTAVYYCARQLTLDVWGQGTLVTVSS VL: QSVLTQPPSVSVAPGQTARISCSGDNLGDKYANWYQQKPGQAPVLVIYDDIDRPSGIPERFSGSNSGNTATLTISGTQAEDEADYYCGSYDFFLGMIVFGGGTKLTVLG",0.193,0.563,0.076,0.148,2.2,,2,
"Fab6468, a recombinant His6-tagged Fab of mAb6785 (Fab, V domains shown) VH: QVQLLESGGGLVQPGGSLRLSCAASGFTFSSYAMSWVRQAPGKGLEWVSTISLTSGFTYYADSVKGRFTISRDNSKNTLYLQMNSLRAEDTAVYYCARQLTLDVWGQGTLVTVSS VL: QSVLTQPPSVSVAPGQTARISCSGDNLGDKYANWYQQKPGQAPVLVIYDDIDRPSGIPERFSGSNSGNTATLTISGTQAEDEADYYCGSYDFFLGMIVFGGGTKLTVLG",,,,,,,,0.205
